Test results: IntAct's records for PubMed 15983381

B1: Parkinson disease protein 7 (Homo sapiens), Q99497 (parent)
chain: MASKRALVILAKGAEEMETVIPVDVMRRAGIKVTVAGLAGKDPVQCSRDVVICPDASLEDAKKEGPYDVVVLPGGNLGAQNLSESAAVKEILKEQENRKGLIAAICAGPTALLAHEIGFGSKVTTHPLAKDKMMNGGHYTYSENRVEKDGLILTSRGPGTSFEFALAIVEALNGKEVAAQVKAPLVLKD

Variants of: B1
Details: with daxx_human DAXX

Variant	effect of a mutation on the interaction
L166P	decreasing interaction
